Measured values reported in patent US20080160008.

Columns and labels:
[1] = target: Aβ1-38 (UniProt P05067)
[2] = target: Aβ1-40 (UniProt P05067)
[3] = target: Aβ1-42 (fresh, nonaggregated synthetic peptide, rPeptide) (UniProt P05067)
[4] = target: fibrillar Aβ1-42 (UniProt P05067)
[5] = target: high-molecular-weight (MW) Aβ assemblies (UniProt P05067)
[6] = target: protofibrillar Aβ1-42 (UniProt P05067)
Sequence of protofibrillar Aβ1-42 (P05067 whole entry, looked up, tested part not stated): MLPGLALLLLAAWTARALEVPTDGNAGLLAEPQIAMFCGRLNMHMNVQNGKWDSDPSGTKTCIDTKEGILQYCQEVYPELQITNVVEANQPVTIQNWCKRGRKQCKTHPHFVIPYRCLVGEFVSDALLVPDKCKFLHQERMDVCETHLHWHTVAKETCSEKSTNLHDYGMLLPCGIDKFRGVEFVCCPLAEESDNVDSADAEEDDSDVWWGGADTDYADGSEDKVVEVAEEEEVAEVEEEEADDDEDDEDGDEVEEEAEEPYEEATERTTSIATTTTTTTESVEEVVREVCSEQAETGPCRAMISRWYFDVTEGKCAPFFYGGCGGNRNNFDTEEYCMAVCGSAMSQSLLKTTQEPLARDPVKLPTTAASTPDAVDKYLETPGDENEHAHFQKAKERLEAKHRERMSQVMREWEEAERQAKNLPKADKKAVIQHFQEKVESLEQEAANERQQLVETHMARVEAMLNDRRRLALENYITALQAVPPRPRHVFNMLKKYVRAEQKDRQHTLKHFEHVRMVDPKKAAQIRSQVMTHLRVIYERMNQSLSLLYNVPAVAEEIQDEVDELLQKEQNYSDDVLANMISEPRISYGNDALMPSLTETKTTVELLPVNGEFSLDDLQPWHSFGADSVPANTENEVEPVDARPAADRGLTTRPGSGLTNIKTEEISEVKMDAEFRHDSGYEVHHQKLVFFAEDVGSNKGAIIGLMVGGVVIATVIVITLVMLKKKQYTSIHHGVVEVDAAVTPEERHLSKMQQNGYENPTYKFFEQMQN

Sequence of Aβ1-42 (fresh, nonaggregated synthetic peptide, rPeptide) (P05067 whole entry, looked up, tested part not stated): as above
Sequence of fibrillar Aβ1-42 (P05067 whole entry, looked up, tested part not stated): as above
Sequence of high-molecular-weight (MW) Aβ assemblies (P05067 whole entry, looked up): as the sequence (P05067 whole entry, looked up, tested part not stated) above
Sequence of Aβ1-40 (P05067 whole entry, looked up, tested part not stated): as above
Sequence of Aβ1-38 (P05067 whole entry, looked up, tested part not stated): as above

purified CatB from human liver (Sigma)
proteolytic products analyzed with SELDI-TOF mass spectrometry [1]: even when Aβ1-40 was almost completely converted to Aβ1-38, no Aβ1-36 was generated from Aβ1-38 | proteolytic products analyzed with SELDI-TOF mass spectrometry [2]: Levels of Aβ1-40 were increased initially at lower doses (100-400 ng/ml), but decreased at higher doses (0.4-2.5 µg/ml) | SELDI-TOF mass spectrometry of cleavage at pH 7.0 [3]: At neutral pH (˜7.0), the ability of CatB to cleave Aβ, especially nonaggregated (fresh) Aβ, was markedly reduced | proteolytic products analyzed with SELDI-TOF mass spectrometry [3]: Incubating Aβ1-42 with CatB resulted in the dose-dependent generation of Aβ1-40, Aβ1-38, and Aβ1-33 through proteolytic cleavage at Val40-Ile41, Gly38-Gly39, and Gly33-Leu34 | western blot analysis of acid-urea gels [3]: The dose-dependent cleavage of Aβ1-42 was confirmed by western blot analysis of acid-urea gels | western blot of Tricine SDS-PAGE gels [3]: Levels of low-MW Aβ1-42 oligomers and monomers, detected with an antibody specific for Aβ1-42, were also reduced | SELDI-TOF mass spectrometry of cleavage at pH 7.0 [4]: protofibrillar/nonfibrillar Aβ oligomers and fibrillar Aβ1-42 preparations were cleaved by CatB even at neutral pH, resulting in the same truncated Aβ species observed at pH 6.0 | amount of fibrillar structures by electron microscopy [4]: incubation of fibrillar Aβ1-42 with CatB did reduce the amount of fibrillar structures | western blot of Tricine SDS-PAGE gels [5]: Incubation of CatB induced a marked decrease in the amounts of high-molecular-weight (MW) Aβ assemblies | SELDI-TOF mass spectrometry of cleavage at pH 6.0 [6]: at pH 6.0, were cleaved by CatB as efficiently as nonaggregated preparations, resulting in the same C-terminally-truncated peptides, Aβ1-40, Aβ1-38, and Aβ1-33 | SELDI-TOF mass spectrometry of cleavage at pH 7.0 [6]: protofibrillar/nonfibrillar Aβ oligomers and fibrillar Aβ1-42 preparations were cleaved by CatB even at neutral pH, resulting in the same truncated Aβ species observed at pH 6.0
